B1: KCNAB2 (parent)
chain: SSIIHEIDSILGNKPYSKKDYRS
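Note: lentivirally expressed fusions sorted by FACS into six bins by GFP to DsRed ratio, PSI derived from sequencing read proportions per bin multiplied by bin number.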

Variants of: B1
Assay: protein stability index of a GFP-peptide fusion (GPS, HEK-293T) (PSI 1-6); higher = more stable
Conditions: c terminus: native
SSIIHEIDSILGNKPYSKFDYRS [K19F] gave a protein stability index of 2.66. SSIIHEIDSILGNKPYSKGDYRS [K19G] showed a protein stability index of 3.84. For SSIIHEIDSILGNKPYSKHDYRS [K19H], the protein stability index was 3.9. SSIIHEIDSILGNKPYSKIDYRS [K19I] showed a protein stability index of 3.3. With SSIIHEIDSILGNKPYSKLDYRS [K19L] the protein stability index was 3.58. For SSIIHEIDSILGNKPYSKMDYRS [K19M], the protein stability index was 3.75. In the case of SSIIHEIDSILGNKPYSKNDYRS [K19N], the protein stability index is reported as 4.06. In the case of SSIIHEIDSILGNKPYSKPDYRS [K19P], the protein stability index is reported as 4.09. In the case of SSIIHEIDSILGNKPYSKQDYRS [K19Q], the protein stability index is reported as 3.87. Variant SSIIHEIDSILGNKPYSKRDYRS [K19R] has a protein stability index of 2.89. With SSIIHEIDSILGNKPYSKSDYRS [K19S] the protein stability index was 3.92. SSIIHEIDSILGNKPYSKTDYRS [K19T] showed a protein stability index of 4.16. In the case of SSIIHEIDSILGNKPYSKVDYRS [K19V], the protein stability index is reported as 3.82. For SSIIHEIDSILGNKPYSKWDYRS [K19W], the protein stability index was 2.8. With SSIIHEIDSILGNKPYSKYDYRS [K19Y] the protein stability index was 2.45. For SSIIHEIDSILGNKPYSKKAYRS [D20A], the protein stability index was 2.14. With SSIIHEIDSILGNKPYSKKCYRS [D20C] the protein stability index was 2.01. In the case of SSIIHEIDSILGNKPYSKKEYRS [D20E], the protein stability index is reported as 2.89. SSIIHEIDSILGNKPYSKKFYRS [D20F] gave a protein stability index of 2.37. Work on SSIIHEIDSILGNKPYSKKGYRS [D20G] yielded a protein stability index of 3.07. SSIIHEIDSILGNKPYSKKHYRS [D20H] gave a protein stability index of 2.51. SSIIHEIDSILGNKPYSKKIYRS [D20I] gave a protein stability index of 2.41. In the case of SSIIHEIDSILGNKPYSKKKYRS [D20K], the protein stability index is reported as 2.47. Work on SSIIHEIDSILGNKPYSKKLYRS [D20L] yielded a protein stability index of 2.63. With SSIIHEIDSILGNKPYSKKMYRS [D20M] the protein stability index was 2.96. Work on SSIIHEIDSILGNKPYSKKNYRS [D20N] yielded a protein stability index of 3.2. SSIIHEIDSILGNKPYSKKPYRS [D20P] showed a protein stability index of 4.21. SSIIHEIDSILGNKPYSKKQYRS [D20Q] gave a protein stability index of 2.04. SSIIHEIDSILGNKPYSKKSYRS [D20S] gave a protein stability index of 2.78. Variant SSIIHEIDSILGNKPYSKKTYRS [D20T] has a protein stability index of 3.55. SSIIHEIDSILGNKPYSKKVYRS [D20V] gave a protein stability index of 2.03. In the case of SSIIHEIDSILGNKPYSKKWYRS [D20W], the protein stability index is reported as 1.92. In the case of SSIIHEIDSILGNKPYSKKYYRS [D20Y], the protein stability index is reported as 2.07. In the case of SSIIHEIDSILGNKPYSKKDARS [Y21A], the protein stability index is reported as 3.77. SSIIHEIDSILGNKPYSKKDCRS [Y21C] gave a protein stability index of 3.13. SSIIHEIDSILGNKPYSKKDDRS [Y21D] showed a protein stability index of 4.07. SSIIHEIDSILGNKPYSKKDERS [Y21E] gave a protein stability index of 3.37. SSIIHEIDSILGNKPYSKKDFRS [Y21F] showed a protein stability index of 2.52. Work on SSIIHEIDSILGNKPYSKKDGRS [Y21G] yielded a protein stability index of 3.37. Work on SSIIHEIDSILGNKPYSKKDHRS [Y21H] yielded a protein stability index of 3.15. SSIIHEIDSILGNKPYSKKDIRS [Y21I] showed a protein stability index of 2.47. Variant SSIIHEIDSILGNKPYSKKDKRS [Y21K] has a protein stability index of 3.66. In the case of SSIIHEIDSILGNKPYSKKDLRS [Y21L], the protein stability index is reported as 2.37. In the case of SSIIHEIDSILGNKPYSKKDMRS [Y21M], the protein stability index is reported as 2.17. Variant SSIIHEIDSILGNKPYSKKDNRS [Y21N] has a protein stability index of 3.64. SSIIHEIDSILGNKPYSKKDPRS [Y21P] showed a protein stability index of 5.12. SSIIHEIDSILGNKPYSKKDQRS [Y21Q] gave a protein stability index of 2.2. In the case of SSIIHEIDSILGNKPYSKKDRRS [Y21R], the protein stability index is reported as 1.77. For SSIIHEIDSILGNKPYSKKDSRS [Y21S], the protein stability index was 1.08. In the case of SSIIHEIDSILGNKPYSKKDTRS [Y21T], the protein stability index is reported as 2.35. SSIIHEIDSILGNKPYSKKDVRS [Y21V] gave a protein stability index of 3.27. In the case of SSIIHEIDSILGNKPYSKKDWRS [Y21W], the protein stability index is reported as 3.28. Variant SSIIHEIDSILGNKPYSKKDYAS [R22A] has a protein stability index of 4.01. SSIIHEIDSILGNKPYSKKDYCS [R22C] gave a protein stability index of 3.26. With SSIIHEIDSILGNKPYSKKDYDS [R22D] the protein stability index was 4.42. SSIIHEIDSILGNKPYSKKDYFS [R22F] gave a protein stability index of 3.18. In the case of SSIIHEIDSILGNKPYSKKDYGS [R22G], the protein stability index is reported as 3.98. Work on SSIIHEIDSILGNKPYSKKDYHS [R22H] yielded a protein stability index of 4.39. In the case of SSIIHEIDSILGNKPYSKKDYIS [R22I], the protein stability index is reported as 3.67. For SSIIHEIDSILGNKPYSKKDYKS [R22K], the protein stability index was 4.37. Work on SSIIHEIDSILGNKPYSKKDYLS [R22L] yielded a protein stability index of 4.01. SSIIHEIDSILGNKPYSKKDYMS [R22M] gave a protein stability index of 3.29. With SSIIHEIDSILGNKPYSKKDYNS [R22N] the protein stability index was 4.55. For SSIIHEIDSILGNKPYSKKDYPS [R22P], the protein stability index was 4.29. For SSIIHEIDSILGNKPYSKKDYQS [R22Q], the protein stability index was 4.29. In the case of SSIIHEIDSILGNKPYSKKDYSS [R22S], the protein stability index is reported as 4.01. With SSIIHEIDSILGNKPYSKKDYTS [R22T] the protein stability index was 4.28. Work on SSIIHEIDSILGNKPYSKKDYVS [R22V] yielded a protein stability index of 3.12. In the case of SSIIHEIDSILGNKPYSKKDYWS [R22W], the protein stability index is reported as 2.57. With SSIIHEIDSILGNKPYSKKDYYS [R22Y] the protein stability index was 3.24. In the case of SSIIHEIDSILGNKPYSKKDYRA [S23A], the protein stability index is reported as 3.37. For SSIIHEIDSILGNKPYSKKDYRC [S23C], the protein stability index was 3.67. Variant SSIIHEIDSILGNKPYSKKDYRD [S23D] has a protein stability index of 4.12. In the case of SSIIHEIDSILGNKPYSKKDYRE [S23E], the protein stability index is reported as 4.19. For SSIIHEIDSILGNKPYSKKDYRF [S23F], the protein stability index was 4.46. SSIIHEIDSILGNKPYSKKDYRG [S23G] showed a protein stability index of 2.56. With SSIIHEIDSILGNKPYSKKDYRH [S23H] the protein stability index was 4.09. In the case of SSIIHEIDSILGNKPYSKKDYRI [S23I], the protein stability index is reported as 3.74. Variant SSIIHEIDSILGNKPYSKKDYRK [S23K] has a protein stability index of 4.33. For SSIIHEIDSILGNKPYSKKDYRL [S23L], the protein stability index was 3.9. For SSIIHEIDSILGNKPYSKKDYRM [S23M], the protein stability index was 3.96. Work on SSIIHEIDSILGNKPYSKKDYRN [S23N] yielded a protein stability index of 4.49. For SSIIHEIDSILGNKPYSKKDYRP [S23P], the protein stability index was 3.8. SSIIHEIDSILGNKPYSKKDYRQ [S23Q] gave a protein stability index of 3.6. For SSIIHEIDSILGNKPYSKKDYRR [S23R], the protein stability index was 2.18. SSIIHEIDSILGNKPYSKKDYRT [S23T] showed a protein stability index of 4.17. In the case of SSIIHEIDSILGNKPYSKKDYRV [S23V], the protein stability index is reported as 3.68. SSIIHEIDSILGNKPYSKKDYRW [S23W] showed a protein stability index of 2.72. SSIIHEIDSILGNKPYSKKDYRY [S23Y] showed a protein stability index of 3.02.
